The values that follow come from US9168297B2, “Regulation of skin pigmentation by neuregulin-1 (NRG-1)” (The United States of America, as Represented by the …, priority 2010, dated 2015).

For one experiment, the system named is HEM-DP melanocytes. Description: Melanin content assay (melanin/protein). It is filed as cell-based, human. The conditions noted are these: NRG-1 50 ng/ml. How it is done:
FIGS. 6A and 6B are bar graphs illustrating the effect of NRG-1 on the pigmentation of cultured human melanocytes. FIG. 6A) Lightly-pigmented (HEM-LP) and FIG. 6B) Darkly-pigmented (HEM-DP) melanocytes were treated with or without NRG-1 (50 ng/ml) for 1, 3, 5 or 9 days and proteins were extracted from each sample. After centrifugation at 10,000 g for 15 minutes, precipitates were analyzed for melanin content, and the supernatants were analyzed for protein content. Results are the average of three studies±SD; statistically significant differences are indicated.
FIGS. 9A and 9B are digital images illustrating the effect of pan-ERBB inhibitors on NRG-1 action on human melanocytes and MelanoDerms. FIG. 9A) HEM-DP melanocytes were treated for 9 days with 50 ng/ml NRG-1 in the presence of C39 (0.5 μM) or CI-1033 (2 μM) or vehicle (DMSO) alone. The results are the averages of 3 independent studies±SD. FIG. 9B) Dark MelanoDerms were treated for 9 days with 50 ng/ml NRG-1 in the presence of C39 (0.5 μM) or CI-1033 (2 μM) or vehicle (DMSO) alone. L values shown are the average of 3 spots measured in the center of each Melanoderm.
Melanin contents were determined by dissolving cell pellets overnight at room temperature in 200 μl 1 N NaOH, and melanin concentrations were quantitated by absorbance at 405 nm in a SpectraMax 250 ELISA reader (Molecular Devices) using a standard curve generated from synthetic melanin (Sigma-Aldrich, St. Louis, Mo.). Melanin content is expressed as μg melanin per μg protein. Each study was repeated at least three times.
The effects of NRG-1 on the pigmentation of human melanocytes were also examined. […] However, on day 9, when the cells had reached confluence, the pigmentation level of NRG-1-treated HEM-LP melanocytes was about 35% higher than the control (FIG. 6A).
The EGF domain of NRG-1 can activate the NRG-1 receptors. Two exemplary EGF domains of NRG-1 were aligned (SEQ ID NOs: 9 and 10) and 5 different […] peptides within these two sequences were designed (FIG. 12). Darkly-pigmented human epidermal melanocytes (HEM-DP) were treated with each of the […] peptides (100 nM) or the commercially available rhNRG-1 (6.25 nM) or the vehicle only (0.1% BSA in PBS) every other day for 7 days.
In particular, HEM-DP were treated with each of the 8-mer peptides (WC-6, […], amino acids 3-10 of SEQ ID NO: 10; WC-7, […], amino acids 8-15 of SEQ ID NO: 10; WC-8, […], amino acids 12-19 of SEQ ID NO: 10; WC-9, […], amino acids 16-23 of SEQ ID NO: 10; WC-10, […], amino acids 20-27 of SEQ ID NO: 10; 100 nM) or the full length EGF domain of NRG-1 (WC-11, SEQ ID NO: 10, 100 nM) or the commercially available rhNRG-1 (SEQ ID NO: 11, 6.25 nM) or vehicle only (0.1% BSA in PBS) every day for 9 days.

Another experiment deals with ERBB2 mRNA. Description: ERBB2 mRNA level by RT-PCR in melanocytes. In kind it is cell-based, human. The conditions noted are these: HEM-LP and HEM-DP, NRG-1 50 ng/ml, 1 day, vs controls. How it is done: FIGS. 8A and 8B are digital images illustrating the mechanism of ERBB2 abrogation after NRG-1 treatment. FIG. 8A) ERBB2 mRNA levels in HEM-LP and in HEM-DP melanocytes were detected by RT-PCR after treatment with or without NRG-1 (50 ng/ml) for 1 day. FIG. 8B) MG132 (120 nM) was added to the melanocyte culture medium to inhibit proteasomal degradation during treatment of HEM-LP and HEM-DP melanocytes with or without NRG-1 (50 ng/ml). Proteins were extracted for each sample, and ERBB2 levels were detected by western blotting. Results are representative of three studies.
Total RNAs were isolated from cells using an RNeasy mini kit (Qiagen, Valencia, Calif.), and 500 ng RNA of each sample was used for reverse transcription. […]
Whether the decrease in ERBB2 level elicited by NRG-1 was due to transcriptional regulation or to proteasomal degradation was further explored. When ERBB2 mRNA levels were measured after 1 day of treatment with NRG-1, NRG-1 treated cells and controls were similar both for HEM-LP and for HEM-DP melanocytes (FIG. 8A) despite the marked decrease in ERBB2 protein expression noted above.

B1: NRG-1: commercially available recombinant human neuregulin-1 (rhNRG-1-β1, R&D Systems), SEQ ID NO: 11 (protein)
chain: TSHLVKCAEKEKTFCVNGGECFMVKDLSNPSRYLCKCPNEFTGDRCQNYVMASFYKHLGIEFMEAEELYQK
Regarding B1, the “Melanin content, NRG-1 alone” value in the experiment on HEM-DP melanocytes (9 days, vehicle DMSO) was “stimulated melanin content”. Besides, the Pigmentation level entry is on record as “remained higher” with HEM-DP melanocytes (day 9, vs controls) and “higher than the controls” in the experiment on HEM-DP melanocytes (starting at day 5, subconfluent, vs controls). Further, in the experiment on ERBB2 mRNA, the “ERBB2 mRNA levels” value is reported as “similar”.
